Data taken from patent US7923230.

Legend:
Amyloid beta (1-40) = test: SPR (BIAcore); SLF-CR pre-incubated with FKBP passed over immobilized Aβ(1-40); SLF-CR alone gave ~140 RUs; ternary FKBP/drug/Aβ complex
Amyloid beta (1-42) = test: cell-based or functional assay
Sequence of Amyloid beta (1-42) (peptide, as listed by the source): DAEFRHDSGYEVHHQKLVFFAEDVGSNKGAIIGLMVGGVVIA

Sequence of Amyloid beta (1-40) (peptide, as listed by the source): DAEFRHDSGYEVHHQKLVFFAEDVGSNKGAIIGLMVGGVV

Row | SPR response (Amyloid beta (1-40)) [RU] | IC50 in thioflavin T aggregation assay (drug concentration, FKBP 1 uM) (Amyloid beta (1-42)) [nM] | Substance
1 | 230 |  | FKBP12 pre-incubated with the bifunctional compound SLF-CR (SLF-Congo red) (from UniProt P62942 2-108) (enzyme)
2 |  | 50 | FKBP12 with the bifunctional compound SLF-Benz-CR (from UniProt P62942 2-108) (enzyme)
